Key:
[1] = molecular target: anti-myc monoclonal antibody (doped selection experiment); assay: immunoprecipitation from 1:2000 myc:pool (LP154:LP160); PCR, AlwnI digest, phosphorimager; background method 1
[2] = molecular target: anti-myc monoclonal antibody (doped selection experiment); assay: immunoprecipitation from 1:2000 myc:pool (LP154:LP160); PCR, AlwnI digest, phosphorimager; background method 2
[3] = molecular target: anti-myc monoclonal antibody (doped selection experiment); assay: immunoprecipitation from 1:20 myc:pool (LP154:LP160); PCR, AlwnI digest, phosphorimager; background method 3
[4] = molecular target: anti-myc monoclonal antibody (doped selection experiment); assay: second set of digests, method 2; sample equivalent to lane 4 (1:2000 myc:pool)
[5] = molecular target: anti-myc monoclonal antibody (doped selection experiment); assay: second set of digests, method 2; sample equivalent to lane 2 (1:20 myc:pool)
[6] = molecular target: anti-myc monoclonal antibody (doped selection experiment); assay: second set of digests, method 2; sample equivalent to lane 3 (1:200 myc:pool)
[7] = molecular target: anti-myc monoclonal antibody (doped selection experiment); assay: immunoprecipitation from 1:20 myc:pool (LP154:LP160); PCR, AlwnI digest, phosphorimager; background method 2
[8] = molecular target: anti-myc monoclonal antibody (doped selection experiment); assay: immunoprecipitation from 1:200 myc:pool (LP154:LP160); PCR, AlwnI digest, phosphorimager; background method 2
[9] = molecular target: anti-myc monoclonal antibody (doped selection experiment); assay: immunoprecipitation from 1:200 myc:pool (LP154:LP160); PCR, AlwnI digest, phosphorimager; background method 1
[10] = molecular target: anti-myc monoclonal antibody (doped selection experiment); assay: immunoprecipitation from 1:2000 myc:pool (LP154:LP160); PCR, AlwnI digest, phosphorimager; background method 3
[11] = molecular target: anti-myc monoclonal antibody (doped selection experiment); assay: immunoprecipitation; PCR and restriction digest before and after selection
[12] = molecular target: anti-myc monoclonal antibody (doped selection experiment); assay: immunoprecipitation from 1:200 myc:pool (LP154:LP160); PCR, AlwnI digest, phosphorimager; background method 3
[13] = molecular target: anti-myc monoclonal antibody (doped selection experiment); assay: immunoprecipitation from 1:20 myc:pool (LP154:LP160); PCR, AlwnI digest, phosphorimager; background method 1

Enrichment of Myc Template vs. Pool [1]: 5.7 fold | Enrichment of Myc Template vs. Pool [2]: 39 fold | Enrichment of Myc Template vs. Pool [3]: 8.7 fold | enrichment (fold) of myc template vs. pool [4]: 12 fold | enrichment (fold) of myc template vs. pool [5]: 10.7 fold | enrichment (fold) of myc template vs. pool [6]: 38 fold | Enrichment of Myc Template vs. Pool [7]: 10.4 fold | Enrichment of Myc Template vs. Pool [8]: 43 fold | Enrichment of Myc Template vs. Pool [9]: 16.6 fold | Enrichment of Myc Template vs. Pool [10]: 10.2 fold | enrichment (fold) relative to the random library [11]: 20 to 40 fold | Enrichment of Myc Template vs. Pool [12]: 27 fold | Enrichment of Myc Template vs. Pool [13]: 7 fold
B1: RNA-protein fusion LP154 (long myc template fusion) (peptide)
peptide: MAEEQKLISEEDLLRKRREQLKHKLEQLRNSCA
modifications: C-terminus joined by an amide bond to the 3' puromycin of its own mRNA-DNA linker template LP154 (SEQ ID NO: 3)

From patent US20040253612A1
